Data reported in US20050196844.

System: E. coli synthesized tau (352 residue isoform), non-phosphorylated

| Substance | in vitro kinase reaction, immunoblot with anti-PY18 and 4G10 |
| --- | --- |
| src tyrosine kinase (Upstate Biotechnologies) | Identical results were observed for src. |
| fyn tyrosine kinase (Upstate Biotechnologies) | fyn kinased tyr18 in vitro |
